Results on 1 molecule are retold here after patent US20150190489A1 (ONCOTHERAPY SCIENCE, published 2015).

This experiment has as its target T1, HLA-DR15 (DRB1*15:02) (human).
T1 construct: whole, on cells; Expressed on mouse fibroblast L-cells (L-DR15) or on donor APCs; also called L-DR15
The experiment in a line: concluded from IFN-gamma ELISPOT with peptide-pulsed L-DR15 cells and HLA-blocking mAbs; no direct binding assay. As for the experimental part:
The immune response of Th cells to APCs pulsed with peptides and proteins were assessed by IFN-gamma ELISPOT assays (Human IFN-gamma ELISPOT kit, BD Biosciences) as described previously (Tomita Y, et al. Cancer Sci; 102: 697-705.). Briefly, the frequency of peptide-specific CD4⁺ T cells producing IFN-gamma per 3×10⁴ bulk CD4⁺ T cells upon stimulation with peptide-pulsed PBMCs (3×10⁴), or 1×10⁴ bulk CD4⁺ T cells upon stimulation with peptide-pulsed L-cells (5×10⁴/well) expressing HLA-DR was analyzed. The frequency of cells producing IFN-gamma per 1×10⁵ CTLs upon stimulation with peptide-pulsed T2 cells (2×10⁴/well) or C1R-A2402 cells (2×10⁴/well) was also analyzed. Alternatively, 5×10³ protein-loaded DCs were co-cultured with 2×10⁴ CD4⁺ T cell clones/well. The protein-loaded mature DCs were prepared from positively isolated CD14⁺ cells (day 0) as described previously (Harao M, et al. Int J Cancer 2008; 123: 2616-25.). On day 5, the DCs were cultured in the presence of the recombinant KIF20A (50 micro-g/ml) and OK432. The protein-loaded mature DCs were harvested on day 7, washed and used as stimulator in IFN-gamma ELISPOT assays. […]

B1: KIF20A (60-84) (peptide)
peptide: DSMEKVKVYLRVRPLLPSELERQED
notes: Synthetic long peptide (purity >90%), pulsed on PBMCs, DCs or L-cell transfectants; also called KIF20A (60-84) LP; KIF20A (60-84) peptide
Turning to B1, the binding result was “binds”.
